The target of the assay is GST F52(pBPa). Kind of assay: cross-linking; photocrosslinking through pBPa in whole N. meningitidis cells, UV light for the indicated times up to 2 hours; bacterial extracts on Western blot with anti-GST mAb. In general terms: A western blot detects proteins with antibodies after separation by electrophoresis.

GST F52(pBPa), sequence (P08515 2-218): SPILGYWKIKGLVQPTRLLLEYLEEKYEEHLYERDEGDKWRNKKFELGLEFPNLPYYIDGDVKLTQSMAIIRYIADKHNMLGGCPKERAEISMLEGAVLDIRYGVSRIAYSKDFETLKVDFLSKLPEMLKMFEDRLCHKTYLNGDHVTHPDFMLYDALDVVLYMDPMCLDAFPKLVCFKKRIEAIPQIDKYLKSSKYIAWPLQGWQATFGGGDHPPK

In general, stoichiometry N refers to the number of molecules, sites or subunits per partner or assembly. In turn, GST F52(pBPa) (enzyme) gave a stoichiometry N of 2.

These data come from publication PMC7458321.
